Residue numbers refer to the chain shown, from its start. Numbers in names are those of the source.
Legend:
NrnCBh = target: T1, NrnCBh (Bartonella henselae, UniProt A0A0R4J6U7); test: DraCALA nitrocellulose spot binding, radiolabelled ligand
T1 construct: gene rnd1

NrnCBh (nano-RNase C) [1] = target: T2, NrnCBh (nano-RNase C) (Bartonella henselae, UniProt A0A0R4J6U7 1-206); test: cryo-EM; DraCALA: 10 mM Tris-HCl pH 8, 100 mM NaCl, 5 mM CaCl2; temperature not stated; conditions: protein: recombinant; tags: tag-less (His6-SUMO removed by Ulp-1); chain copies: 8
T2 sequence: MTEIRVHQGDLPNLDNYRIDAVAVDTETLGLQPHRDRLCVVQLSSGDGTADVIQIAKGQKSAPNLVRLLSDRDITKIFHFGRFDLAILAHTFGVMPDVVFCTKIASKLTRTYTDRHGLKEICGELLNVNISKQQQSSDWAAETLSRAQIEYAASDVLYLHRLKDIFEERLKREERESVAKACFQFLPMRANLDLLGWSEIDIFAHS

crystal structure = target: the molecule itself; test: crystal structure
NrnCBh (nano-RNase C) [2] = target: T2, NrnCBh (nano-RNase C); test: DraCALA (nitrocellulose); DraCALA: 10 mM Tris-HCl pH 8, 100 mM NaCl, 5 mM CaCl2; temperature not stated; conditions: protein: recombinant; tags: tag-less (His6-SUMO removed by Ulp-1); chain copies: 8
SEC-MALS = target: the molecule itself; test: SEC-MALS
NrnCBh (nano-RNase C) [3] = target: T2, NrnCBh (nano-RNase C); test: cryo-EM; only 3' dinucleotide resolved; DraCALA: 10 mM Tris-HCl pH 8, 100 mM NaCl, 5 mM CaCl2; temperature not stated; conditions: protein: recombinant; tags: tag-less (His6-SUMO removed by Ulp-1); chain copies: 8

Nc1nc2c(ncn2[C@@H]2O[C@H](COP(=O)(O)O[C@H]3[C@@H](O)[C@H](n4cnc5c(=O)[nH]c(N)nc54)O[C@@H]3COP(=O)(O)O[C@H]3[C@@H](O)[C@H](n4cnc5c(N)ncnc54)O[C@@H]3COP(=O)(O)O)[C@@H](O)[C@H]2O)c(=O)[nH]1 [pAGG]
Kd (NrnCBh): 3490 nM

Nc1nc2c(ncn2[C@@H]2O[C@H](COP(=O)(O)O[C@H]3[C@@H](O)[C@H](n4cnc5c(=O)[nH]c(N)nc54)O[C@@H]3COP(=O)(O)O)[C@@H](O)[C@H]2O)c(=O)[nH]1 [pGG]
Kd (NrnCBh): 17.7 nM

AAAGG (ssRNA, 5' phosphate) [pAAAGG]
binding result (NrnCBh (nano-RNase C) [1]): binds

B1: Brucella melitensis nano-RNase C (NrnC), wild type (enzyme)
chain: MTIRFHRNDLPNLDNYQVDAVAIDTETLGLNPHRDRLCVVQISPGDGTADVIQIEAGQKKAPNLVKLLKDRSITKIFHFGRFDLAVLAHAFGTMPQPVFCTKIASKLTRTYTDRHGLKEICSELLDVSISKQQQSSDWAAEVLSQAQLEYAASDVLYLHRLKAVLEQRLERDGRTKQAEACFKFLPTRSELDLMGWAESDIFAHS
notes: also called NrnCBm
stoichiometry N (crystal structure): 8

AAAAAGG (ssRNA, 5' phosphate) [pAAAAAGG]
Kd (NrnCBh (nano-RNase C) [2]): 576 nM

B2: Bartonella henselae nano-RNase C (NrnC), wild type (enzyme)
chain: T2 sequence
notes: also called NrnCBh; wild-type NrnCBh
stoichiometry N (crystal structure): 8

B3: Bartonella henselae NrnC H205A (enzyme)
chain: T2 sequence with H205A
stoichiometry N (SEC-MALS): 8

B4: Bartonella henselae NrnC L31A (enzyme)
chain: T2 sequence with L31A
notes: L-wedge mutant
stoichiometry N (SEC-MALS): 8

B5: Bartonella henselae NrnC H79A (enzyme)
chain: T2 sequence with H79A
notes: Phosphate cap mutant
stoichiometry N (SEC-MALS): 8

B6: Bartonella henselae NrnC K103A (enzyme)
chain: T2 sequence with K103A
notes: Phosphate cap mutant
stoichiometry N (SEC-MALS): 8

B7: Bartonella henselae NrnC Y151A (enzyme)
chain: T2 sequence with Y151A
stoichiometry N (SEC-MALS): 8

B8: Bartonella henselae NrnC D25A (enzyme)
chain: T2 sequence with D25A
stoichiometry N (SEC-MALS): 8

AGG (ssRNA, 5' phosphate) [pAGG]
binding result (NrnCBh (nano-RNase C) [3]): binds
